Assay results reported in paper PMC5330260 (Analytical biochemistry, 2017).

Target: Gαi1 (human, UniProt P63096 1-354)
Experiment: split reporter

Chain of Gαi1 (P63096 whole entry): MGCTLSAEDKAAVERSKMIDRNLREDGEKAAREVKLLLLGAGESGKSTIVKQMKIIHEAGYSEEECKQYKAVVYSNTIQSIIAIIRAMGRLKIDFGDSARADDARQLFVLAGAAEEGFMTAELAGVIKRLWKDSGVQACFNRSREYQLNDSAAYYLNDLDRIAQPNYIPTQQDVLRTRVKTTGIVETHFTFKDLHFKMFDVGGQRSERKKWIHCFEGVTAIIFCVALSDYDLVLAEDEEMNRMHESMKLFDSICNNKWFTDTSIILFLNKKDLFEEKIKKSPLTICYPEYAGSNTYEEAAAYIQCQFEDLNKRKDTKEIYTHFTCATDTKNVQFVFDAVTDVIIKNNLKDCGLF

B1: RGS17 RH domain (domain or fragment, human, UniProt Q9UGC6 73-201, looked up)
chain: PTAEEVLSWSQNFDKMMKAPAGRNLFREFLRTEYSEENLLFWLACEDLKKEQNKKVIEEKARMIYEDYISILSPKEVSLDSRVREVINRNLLDPNPHMYEDAQLQIYTLMHRDSFPRFLNSQIYKSFVE
  net signal increase in response to AlF4, fold of that of RGS6: 2.8 fold
  net signal increase in response to AlF4, fold of that of RGS7: 6.3 fold
